Starred links: 1 amine or outer side, 2 acyl side, 3 side chain; linkers in the order of their positions; H or OH if unused. Positions of bridges follow the written chain, without caps; N, C: chain ends. Non-standard residues stand in square brackets, D forms with d. Primed or numbered codes have the meaning given here. *: point of attachment. B5(10) = 2-amino-2-(pent-4-en-1-yl)hept-6-enoic acid, bis(4-pentenyl)glycine, stitching residue bearing both staples, C=CCCCC(CCCC=C)(N[*:1])C(=O)[*:2]; B5(16) = 2-amino-2-(pent-4-en-1-yl)hept-6-enoic acid = 2,2-bis(4-pentenyl)glycine (stitching residue), C=CCCCC(CCCC=C)(N[*:1])C(=O)[*:2]; B5(5) = 2,2-bis(4-pentenyl)glycine, 2-amino-2-(pent-4-en-1-yl)hept-6-enoic acid (stitching residue), C=CCCCC(CCCC=C)(N[*:1])C(=O)[*:2]; PyrS2 = (S)-3-amino-1-((pent-4-en-1-yloxy)carbonyl)pyrrolidine-3-carboxylic acid, C=CCCCOC(=O)N1CC[C@@](N[*:1])(C(=O)[*:2])C1; Bta = N[C@@H](Cc1csc2ccccc12)C(=O)O; αAllylPro = C=CC[C@@]1(C(=O)O)CCCN1; S8 = C=CCCCCCC[C@](C)(N)C(=O)O; Ms = CS(=O)(=O)*

For experiment [1], the target named is T1, full-length beta-Catenin (Uniprot ID P35222) (Homo sapiens (Human), UniProt P35222 2-781).
T1 construct: The fluorescence polarization protocol says only 'full-length'; also called bCat; B-Catenin
T1 sequence: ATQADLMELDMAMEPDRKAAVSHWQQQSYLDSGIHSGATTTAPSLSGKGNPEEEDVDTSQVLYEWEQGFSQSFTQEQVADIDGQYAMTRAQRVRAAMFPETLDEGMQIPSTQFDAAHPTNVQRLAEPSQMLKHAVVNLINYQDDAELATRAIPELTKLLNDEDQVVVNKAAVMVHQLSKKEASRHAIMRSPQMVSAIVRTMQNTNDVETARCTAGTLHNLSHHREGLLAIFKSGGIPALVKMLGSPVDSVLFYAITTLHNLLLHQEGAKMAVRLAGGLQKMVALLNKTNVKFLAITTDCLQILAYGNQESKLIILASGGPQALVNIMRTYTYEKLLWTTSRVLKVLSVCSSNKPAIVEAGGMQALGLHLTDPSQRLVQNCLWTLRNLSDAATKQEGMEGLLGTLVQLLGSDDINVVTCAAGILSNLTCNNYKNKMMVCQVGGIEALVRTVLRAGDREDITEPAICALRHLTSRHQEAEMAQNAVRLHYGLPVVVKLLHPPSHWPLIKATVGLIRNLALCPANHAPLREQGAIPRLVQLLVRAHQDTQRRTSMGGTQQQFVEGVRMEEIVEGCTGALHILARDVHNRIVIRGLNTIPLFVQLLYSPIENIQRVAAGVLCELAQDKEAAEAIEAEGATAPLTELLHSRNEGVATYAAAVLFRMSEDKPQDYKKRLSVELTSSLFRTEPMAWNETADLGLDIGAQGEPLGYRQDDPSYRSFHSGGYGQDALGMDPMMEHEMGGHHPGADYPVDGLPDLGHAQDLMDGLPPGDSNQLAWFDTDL
Nature of the experiment: fluorescence polarization competition; full-length beta-catenin + 5FAM-TCF4(10-53) probe; peptide titrated. On the procedure: (§1) The plate was incubated protected from light for 60 minutes at 20° C. prior to read. Reads were performed on a CLARIOstar plate reader (BMG Labtech) in duplicate, and data were fitted to a 1:1 binding model with hill slope using an in-house script. All provided concentrations are final concentrations.

Experiment [2] concerns the target T2, full-length beta-Catenin (Uniprot ID P35222) (Homo sapiens (Human), UniProt P35222 2-781).
T2 construct: The FP protocol says 'full-length beta-Catenin (Uniprot ID P35222)'; also called bCat; B-Catenin
T2 sequence: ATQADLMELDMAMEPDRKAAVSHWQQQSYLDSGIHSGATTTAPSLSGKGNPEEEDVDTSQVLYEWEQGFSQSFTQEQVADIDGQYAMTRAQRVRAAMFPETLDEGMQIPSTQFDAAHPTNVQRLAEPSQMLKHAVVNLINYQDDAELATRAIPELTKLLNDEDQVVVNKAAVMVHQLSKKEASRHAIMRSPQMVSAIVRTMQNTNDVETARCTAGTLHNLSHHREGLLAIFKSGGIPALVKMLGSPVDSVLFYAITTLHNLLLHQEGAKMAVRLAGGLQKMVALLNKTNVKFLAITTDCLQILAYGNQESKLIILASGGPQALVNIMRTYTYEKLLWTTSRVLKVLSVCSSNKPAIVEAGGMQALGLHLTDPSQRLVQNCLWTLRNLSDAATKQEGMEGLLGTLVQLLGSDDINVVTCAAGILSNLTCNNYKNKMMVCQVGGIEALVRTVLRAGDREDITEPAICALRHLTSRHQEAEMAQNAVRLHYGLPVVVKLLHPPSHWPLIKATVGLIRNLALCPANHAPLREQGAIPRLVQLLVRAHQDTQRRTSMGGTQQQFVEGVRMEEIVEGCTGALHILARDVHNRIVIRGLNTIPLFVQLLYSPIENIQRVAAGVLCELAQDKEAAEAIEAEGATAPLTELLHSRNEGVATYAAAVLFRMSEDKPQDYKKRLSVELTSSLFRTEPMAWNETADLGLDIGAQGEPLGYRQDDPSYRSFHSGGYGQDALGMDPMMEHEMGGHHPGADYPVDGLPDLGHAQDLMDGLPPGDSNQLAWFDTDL
The experiment is described as follows: fluorescence polarization competition; full-length beta-catenin + 5FAM-TCF4 10-53 probe. As for the experimental part:
as §1

The next experiment has as its target T3, Bcat-Halo (UniProt P35222 1-781).
T3 construct: also called beta-catenin HaloTag fusion; not shown: HaloTag
T3 sequence (looked up): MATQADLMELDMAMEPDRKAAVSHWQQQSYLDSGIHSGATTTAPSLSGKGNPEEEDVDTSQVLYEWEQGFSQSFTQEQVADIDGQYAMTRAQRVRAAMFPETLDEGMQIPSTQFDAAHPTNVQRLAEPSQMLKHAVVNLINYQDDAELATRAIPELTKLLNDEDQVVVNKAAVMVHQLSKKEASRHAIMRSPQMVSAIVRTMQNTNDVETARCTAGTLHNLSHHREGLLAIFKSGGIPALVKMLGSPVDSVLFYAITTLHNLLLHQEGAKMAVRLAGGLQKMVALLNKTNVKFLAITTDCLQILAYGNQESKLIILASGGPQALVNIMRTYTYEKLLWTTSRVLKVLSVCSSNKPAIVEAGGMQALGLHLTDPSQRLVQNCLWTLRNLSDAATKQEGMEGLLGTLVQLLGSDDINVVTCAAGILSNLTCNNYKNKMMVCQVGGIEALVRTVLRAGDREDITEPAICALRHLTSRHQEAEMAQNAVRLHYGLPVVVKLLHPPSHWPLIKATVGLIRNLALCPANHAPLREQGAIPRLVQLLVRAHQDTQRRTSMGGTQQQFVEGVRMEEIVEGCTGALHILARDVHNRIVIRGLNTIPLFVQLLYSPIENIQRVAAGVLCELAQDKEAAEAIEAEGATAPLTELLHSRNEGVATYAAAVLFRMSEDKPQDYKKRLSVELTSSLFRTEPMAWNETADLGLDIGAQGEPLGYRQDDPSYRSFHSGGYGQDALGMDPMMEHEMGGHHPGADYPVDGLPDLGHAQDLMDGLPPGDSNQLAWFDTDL
The experiment is described as follows: NanoBRET Abs IC50 in HEK293 cells; Bcat-Halo, competitor TCF4-Luc.

B1: I-711 (peptide)
peptide: Ms-[αAllylPro]DI[B5(5)]DEAAFQ[S8]F[Bta]Q-NH2
modifications: staple 1-4, 4-11
notes: Stapled peptide composition; Later-eluting HPLC isomer peak (I-710 is the earlier one); also called MeSO2-PL3-Asp-Ile-B5-Asp-Glu-Ala-Ala-Phe-Gln-S8-Phe-BztA-Gln-NH2
Take B1: in experiment [1], the concentration for a half-maximal effect (EC50) was 0.088 µM.

B2: I-1296 (peptide)
peptide: Ac-[αAllylPro]DA[B5(10)]NTAAFL[PyrS2]F[Bta]Q-NH2
modifications: staple 1-4, 4-11; not fully specified; printed as Ac-PL3-Asp-Ala-B5-Asn-Thr-Ala-Ala-Phe-Leu-PyrS2-Phe-BztA-Gln-NH2
notes: later eluting HPLC peak (staple isomer composition); also called Ac-PL3-Asp-Ala-B5-Asn-Thr-Ala-Ala-Phe-Leu-PyrS2-Phe-BztA-Gln-NH2
With B2, in experiment [2], the IC50 was found to be 3.79 µM.
Turning to Ac-[αAllylPro]DI[B5(16)]DEQAFQ[S8]F[Bta]Q-NH2 (staple 1-4, 4-11, Stapled peptide) [I-654], the IC50 with Bcat-Halo stood at 15 µM.

The values above are taken from patent US20240116985A1 (published 2024).
